Earlier results in PMC10818705.

Molecular target: Tyr109 (UniProt position 129, EGEHFYFFCTF)

## Azurin, His107/Tyr109 (Lys122) hopping variant (Pseudomonas aeruginosa; W48F;Y72F;Y108F;H83Q;Q107H;M109Y)
  pKa: 10.2 ± 0.3
